Reference: US20220177587A1, “METHODS AND USES OF VARIANT CD80 FUSION PROTEINS AND RELATED CONSTRUCTS” (Alpine Immune Sciences, Inc., priority 2018, published 2022)

Assays:
huCTLA4 = huCTLA4 (Homo sapiens, UniProt P16410); assay: Flow binding to HEK293 cells transfected with CTLA4; parameters: Full-length mammalian surface expression constructs for each of human CTLA-4, PD-L1, and CD28; host or cells: HEK293 cells, Expi293F transient transfection system; conditions: Table E1
Method: Full-length mammalian surface expression constructs for each of human CTLA-4, PD-L1, and CD28, were designed in pcDNA3.1 expression vector (Life Technologies) and sourced from Genscript, USA. Binding studies were carried out on transfected HEK293 cells generated to express the full-length mammalian surface ligands using the using the Expi293F transient transfection system (Life Technologies, USA). As a control, binding to mock (non-transfected) cells also was assessed. […] For each CTLA-4, PD-L1, CD-28 or mock 30 mL transfection, 75 million Expi293F cells were incubated with 30 μg expression construct DNA and 1.5 mL diluted ExpiFectamine 293 reagent for 48 hours, at which point cells were harvested for staining.
For staining and analysis by flow cytometry, 100,000 cells of appropriate transient transfection or negative control (mock) were plated in 96-well round bottom plates. Cells were spun down and resuspended in staining buffer (PBS (phosphate buffered saline), 1% BSA (bovine serum albumin), and 0.1% sodium azide) for 20 minutes to block non-specific binding. […] Secondary antibody was washed out twice, cells were fixed in 4% formaldehyde/PBS, and samples were analyzed on Intellicyt flow cytometer (Intellicyt Corp, USA). Mean Fluorescence Intensity (MFI) was calculated for each transfectant and mock transfected HEK293 with FlowJo Version 10 software (FlowJo LLC, USA).

CD28 [1] = target: T1, CD28 (Homo sapiens, UniProt P10747); assay: Jurkat/IL2 + CHO/OKT3 +/- PD-L1 reporter assay: PD-L1-dependent CD28 costimulation; type: cell-based; parameters: host or cells: Jurkat cells expressing an IL-2-luciferase reporter; conditions: luciferase signal
Summary of the method: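 Jurkat reporter cells (100,000/well) preincubated 15 min at room temperature with test protein, then cocultured 5 h at 37 °C with CHO aAPCs bearing anti-CD3 scFv (OKT3) with or without PD-L1. Luciferase luminescence (RLU) read after lysis-substrate addition.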

CD28 [2] = target: T1, CD28; assay: Flow binding to HEK293 cells transfected with CD28; parameters: Full-length mammalian surface expression constructs for each of human CTLA-4, PD-L1, and CD28; host or cells: HEK293 cells, Expi293F transient transfection system; conditions: Table E1
Method: This Example describes Fc-fusion binding studies of purified proteins from the above Examples to cell-expressed CTLA-4, PD-L1, and CD28 counter structures to assess the specificity and affinity of CD80 domain variant immunomodulatory proteins. Full-length mammalian surface expression constructs for each of human CTLA-4, PD-L1, and CD28, were designed in pcDNA3.1 expression vector (Life Technologies) and sourced from Genscript, USA. Binding studies were carried out on transfected HEK293 cells generated to express the full-length mammalian surface ligands using the using the Expi293F transient transfection system (Life Technologies, USA). As a control, binding to mock (non-transfected) cells also was assessed. […]
For staining and analysis by flow cytometry, 100,000 cells of appropriate transient transfection or negative control (mock) were plated in 96-well round bottom plates. […] As controls, the binding activities of wild-type CD80-ECD-Fc (R&D Systems), wild-type CD80-ECD-Fc (inert), wild-type IgV-Fc (inert) and/or human IgG (Sigma) were also assessed. […] Secondary antibody was washed out twice, cells were fixed in 4% formaldehyde/PBS, and samples were analyzed on Intellicyt flow cytometer (Intellicyt Corp, USA). Mean Fluorescence Intensity (MFI) was calculated for each transfectant and mock transfected HEK293 with FlowJo Version 10 software (FlowJo LLC, USA). […]

CD28 [3] = target: T1, CD28; assay: CD28 costimulation via Fc receptor or PD-L1 dependent cross-linking (Jurkat/IL2 + K562/OKT3 +/- PD-L1); type: cell-based; parameters: host or cells: Jurkat cells expressing an IL-2-luciferase reporter; conditions: luciferase signal
Method: In a further experiment, CD28 costimulation was assessed for variant CD80-IgV-Fc fusion proteins, where the Fc was an IgG1 Fc (e.g. SEQ ID NO:1517) capable of mediating effector activity via binding to Fc receptors (FcR). The experiment was carried out as described in part A above, except CD32-expressing K562 cells stably transduced with OKT3 (K562/OKT3) or OKT3 and PD-L1 (K562/OKT3/PD-L1) were used instead of the CHO/OKT3 and CHO/OKT3/PD-L1 cells, and the results are depicted in Table E9.

huPD-L1 = huPD-L1 (Homo sapiens, UniProt Q9NZQ7); assay: Flow binding to Expi293F cells transfected with PD-L1 (ECD variants); parameters: Full-length mammalian surface expression constructs for each of human CTLA-4, PD-L1, and CD28; host or cells: HEK293 cells, Expi293F transient transfection system; conditions: Table E32; variant CD80 ECD-Fc selected against CD28
huPD-L1, sequence (Q9NZQ7 19-290): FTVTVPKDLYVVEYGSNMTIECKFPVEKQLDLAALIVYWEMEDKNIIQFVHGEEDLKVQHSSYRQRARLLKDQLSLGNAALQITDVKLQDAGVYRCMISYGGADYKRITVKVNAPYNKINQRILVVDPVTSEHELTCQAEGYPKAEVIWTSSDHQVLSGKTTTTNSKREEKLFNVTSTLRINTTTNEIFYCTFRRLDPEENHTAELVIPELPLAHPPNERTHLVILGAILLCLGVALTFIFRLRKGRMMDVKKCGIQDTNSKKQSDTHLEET
Method: To produce cells expressing cognate binding partners, full-length mammalian surface expression constructs for each of human CD28, CTLA-4 and PD-L1, were designed in pcDNA3.1 expression vector (Life Technologies) and sourced from Genscript, USA. Binding studies were carried out using the Expi293F transient transfection system (Life Technologies, USA). […] For each CD28, CTLA-4, PD-L1, or mock 30 ml transfection, 75 million Expi293F cells were incubated with 30 μg expression construct DNA and 1.5 ml diluted ExpiFectamine 293 reagent for 48 hours, at which point cells were harvested for staining.
For staining by flow cytometry, 200,000 cells of appropriate transient transfection or negative control were plated in 96-well round bottom plates. Cells were spun down and resuspended in staining buffer (PBS (phosphate buffered saline), 1% BSA (bovine serum albumin), and 0.1% sodium azide) for 20 minutes to block non-specific binding. […] Secondary antibody was washed out twice, cells were fixed in 4% formaldehyde/PBS, and samples were analyzed on FACScan flow cytometer (Becton Dickinson, USA).
Mean Fluorescence Intensity (MFI) was calculated for each transfectant and negative parental line with Cell Quest Pro software (Becton Dickinson, USA).

human pan T cells = assay: Anti-CD3 coimmobilization assay, IFN-gamma; type: cell-based; conditions: Table E32; variant ECD-Fc coimmobilized with anti-CD3; culture supernatant
Method: Costimulatory bioactivity of CD80 fusion variants was determined in anti-CD3 coimmobilization assays. 1 nM or 4 nM mouse anti-human CD3 (OKT3, Biolegends, USA) was diluted in PBS with 1 nM to 80 nM rCD80.Fc variant proteins. This mixture was added to tissue culture treated flat bottom 96-well plates (Corning, USA) overnight to facilitate adherence of the stimulatory proteins to the wells of the plate. The next day, unbound protein was washed off the plates and 100,000 purified human pan T cells (BenTech Bio, US) or human T cell clone BC3 (Astarte Biologics, USA) were added to each well in a final volume of 200 μl of Ex-Vivo 15 media (Lonza, Switzerland). Cells were cultured 3 days before harvesting culture supernatants and measuring human IFN-gamma levels with Duoset ELISA kit (R&D Systems, USA) as described above.

allogeneic CD4+ T cells = assay: Mixed Lymphocyte Reaction (MLR), IFN-gamma; type: cell-based, human; conditions: Table E32; variant ECD-Fc in MLR assay; culture supernatant
Method: Soluble rCD80.Fc bioactivity was tested in a human Mixed Lymphocyte Reaction (MLR). Human primary dendritic cells (DC) were generated by culturing monocytes isolated from PBMC (BenTech Bio, USA) in vitro for 7 days with 500U/ml rIL-4 (R&D Systems, USA) and 250 U/ml rGM-CSF (R&D Systems, USA) in Ex-Vivo 15 media (Lonza, Switzerland). 10,000 matured DC and 100,000 purified allogeneic CD4+ T cells (BenTech Bio, USA) were co-cultured with variant CD80 Fc fusion proteins and controls in 96 well round bottom plates in 200 μl final volume of Ex-Vivo 15 media. On day 5, IFN-gamma secretion in culture supernatants was analyzed using the Human IFN-gamma Duoset ELISA kit (R&D Systems, USA). Optical density was measured by VMax ELISA Microplate Reader (Molecular Devices, USA) and quantitated against titrated rIFN-gamma standard included in the IFN-gamma Duo-set kit (R&D Systems, USA).

huCTLA4, sequence (P16410 36-223): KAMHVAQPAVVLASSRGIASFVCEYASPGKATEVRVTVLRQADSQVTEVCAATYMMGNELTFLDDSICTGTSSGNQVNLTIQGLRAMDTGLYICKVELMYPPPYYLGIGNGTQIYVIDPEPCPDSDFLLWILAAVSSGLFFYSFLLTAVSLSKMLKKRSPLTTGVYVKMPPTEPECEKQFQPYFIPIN

| Substance | CTLA4 MFI at 66.6 nM (huCTLA4) | PD-L1-Dependent CD28 Costimulation, +PD-L1, 0.6 nM (CD28 [1]; CHO/OKT3/PD-L1 aAPC, 0.6 nM) | PD-L1-Dependent CD28 Costimulation, +PD-L1, 50 nM (CD28 [1]; CHO/OKT3/PD-L1 aAPC, 50 nM) | PD-L1-Dependent CD28 Costimulation, No PD-L1, 50 nM (CD28 [1]; CHO/OKT3 aAPC, no PD-L1, 50 nM) | PD-L1-Dependent CD28 Costimulation, No PD-L1, […] (CD28 [1]; CHO/OKT3 aAPC, no PD-L1, […]) | CD28 MFI at 66.6 nM (CD28 [2]) | CD28 costimulation, Combination of FcR and/or PD-L1 Dependent Cross-Linking, 0.6 nM (CD28 [3]; K562/0KT3/PD-L1 aAPC, 0.6 nM) | CD28 costimulation, Combination of FcR and/or PD-L1 Dependent Cross-Linking, 50 nM (CD28 [3]; K562/0KT3/PD-L1 aAPC, 50 nM) | CD28 costimulation, FcR Dependent Cross-Linking (No PD-L1), 0.6 nM (CD28 [3]; K562/0KT3 aAPC, 0.6 nM) | CD28 costimulation, FcR Dependent Cross-Linking (No PD-L1), 50 nM (CD28 [3]; K562/0KT3 aAPC, 50 nM) | CD28 costimulation, FcR Dependent Cross-Linking (No PD-L1), […] (CD28 [3]; K562/0KT3 aAPC, […]) | Binding PD-L1 MFI (huPD-L1) | Coimmobilization with anti CD3 IFN-gamma (human pan T cells) | MLR IFN-gamma levels (allogeneic CD4+ T cells) |
| --- | --- | --- | --- | --- | --- | --- | --- | --- | --- | --- | --- | --- | --- | --- |
| Fc only: negative control Fc alone [reference compound] | 5962 | 501 | 440 | 395 | 419 | 2592 | 689 | 679 | 1404 | 1373 | 1390 | – | – | – |
| WT CD80 | – | – | – | – | – | – | – | – | – | – | – | 70 | 83 pg/mL | 866 pg/mL |
